Test results: article PMC10644391 (2023)
Ends that are not written are not given here.

Target: T1, HEG1 cytoplasmic tail 7-mer peptide cytoplasmic tail 7-mer (Homo sapiens, UniProt Q9ULI3, also: Cy5-labelled)
T1 chain: SRRRDYF
Assay: fluorescence polarization

Kd: 13 nM
B1: KRIT1 417-736 (protein)
chain: KPYEKVRIYRMDGSYRSVELKHGNNTTVQQIMEGMRLSQETQQYFTIWICSENLSLQLKPYHKPLQHVRDWPEILAELTNLDPQRETPQLFLRRDVRLPLEVEKQIEDPLAILILFDEARYNLLKGFYTAPDAKLITLASLLLQIVYGNYESKKHKQGFLNEENLKSIVPVTKLKSKAPHWTNRILHEYKNLSTSEGVSKEMHHLQRMFLQNCWEIPTYGAAFFTGQIFTKASPSNHKVIPVYVGVNIKGLHLLNMETKALLISLKYGCFMWQLGDTDTCFQIHSMENKMSFIVHTKQAGLVVKLLMKLNGQLMPTERNS
